Laboratory results from publication PMC11154713 (The Journal of Biological Chemistry, 2024).
pEC50: −log10 of the molar value. Where two headings read alike, the source gives them in different places. Bridges are numbered along the chain shown (N, C = ends). Where no end group is shown, it is not given here.

Key:
CB2R [1] = molecular target: T1, CB2R (Homo sapiens, UniProt P34972); experiment: cell-based; assay type: cell-based; details: for decrease of efficacy of 2-AG to recruit β-arrestin-2 / decrease of efficacy of CP55940 to recruit β-arrestin-2: single point, peptide 10 μM; for decrease of efficacy of 2-AG to recruit β-arrestin-2: 2-AG 1 μM; for decrease of efficacy of CP55940 to recruit β-arrestin-2: CP55940 1 μM
T1 sequence (P34972 whole entry): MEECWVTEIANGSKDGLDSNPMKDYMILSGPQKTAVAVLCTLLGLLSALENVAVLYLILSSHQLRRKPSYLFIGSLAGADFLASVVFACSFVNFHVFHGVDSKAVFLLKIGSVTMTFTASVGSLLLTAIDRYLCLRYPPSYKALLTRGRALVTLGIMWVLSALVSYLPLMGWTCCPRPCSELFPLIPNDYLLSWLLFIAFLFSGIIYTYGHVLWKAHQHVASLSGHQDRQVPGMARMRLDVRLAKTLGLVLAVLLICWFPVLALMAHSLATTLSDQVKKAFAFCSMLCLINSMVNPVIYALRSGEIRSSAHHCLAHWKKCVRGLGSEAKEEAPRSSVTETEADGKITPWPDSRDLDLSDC

[2] = tested on: untransfected CHO-K1 cells; experiment: cAMP assay in untransfected CHO-K1 cells; assay type: cell-based; details: vodo-C1 30 µM; CP55940 and 2-AG 10 µM and 1 µM, alone or with 10 μM vBCL1-4
CB2R [3] = molecular target: T1, CB2R; assay type: cell-based
CB2R [4] = molecular target: T1, CB2R; experiment: cAMP assay; assay type: cell-based; details: varying concentrations, inverse agonist control
CB2R [5] = molecular target: T1, CB2R; experiment: Radioligand displacement of [3H]-CP55940 at human CB2R membrane preparations; assay type: binding; details: peptide 100 nM and 10 μM; [3H]-CP55940 0.5 nM mixed with cold CP55940 4.5 nM
CB2R [6] = molecular target: T1, CB2R; experiment: cAMP assay in the absence of forskolin; assay type: cell-based; details: 10 µM peptide with varying CP55940, no forskolin

| Compound | changes in cAMP levels in untransfected cells [2] | decrease of efficacy of 2-AG to recruit β-arrestin-2 (CB2R [1]) | decrease of efficacy of CP55940 to recruit β-arrestin-2 (CB2R [1]) | EC50 fold shift relative to 2-AG (CB2R [3]; 10 μM peptide) | EC50 fold shift relative to WIN55,212-2 (CB2R [3]; 10 μM peptide) | also measured |
| --- | --- | --- | --- | --- | --- | --- |
| CCCCC/C=C\C/C=C\C/C=C\C/C=C\CCCC(=O)OC(CO)CO [2-AG, 2-arachidonoylglycerol, reference compound] | no changes in cAMP levels | – | – | – | – | pEC50 (CB2R [1]): 6.22; pEC50 (CB2R [3]; EC50 of agonist alone, agonist alone): 6.32 |
| CCCCCCC(C)(C)c1ccc([C@@H]2C[C@H](O)CC[C@H]2CCCO)c(O)c1 [CP55940] | no changes in cAMP levels | – | – | – | – | – |
| SR144528 | – | – | – | – | – | effect on basal levels of CB2R activity (CB2R [4]): reduced the basal levels of CB2R activity |
| vBCL1: vodo-C1-inspired bicyclic loop peptide, loops 1 and 2, 10 residues, cyclized with 1,3,5-tris-(bromomethyl)-benzene (CGETCFTGKC; linker 1-5-10 via 1,3,5‑tris‑(bromomethyl)‑benzene (inferred)) | – | no or only minor (not significant) changes | no or only minor (not significant) changes | ~6 fold | ~6 fold | – |
| vBCL3: vodo-C1-inspired bicyclic loop peptide, loops 5 and 6, 15 residues, cyclized with 1,3,5-tris-(bromomethyl)-benzene (CEWPICTKNGDPLPC; linker 1-6-15 via 1,3,5‑tris‑(bromomethyl)‑benzene (inferred)) | – | no or only minor (not significant) changes | no or only minor (not significant) changes | ~6 fold | ~6 fold | decrease of the efficacy of CP55940 (CB2R [3]; 10 μM peptide): ~40%; effect on basal activity (WIN55,212-2 curve) (CB2R [3]; 10 μM peptide): reduced the basal activity; effect on basal response (CP55940 curve) (CB2R [3]; 10 μM peptide): reduction in basal response; binding to the receptor (two-point displacement) (CB2R [5]): did not bind to the receptor; intrinsic inverse agonist activity (CB2R [6]): lacks intrinsic inverse agonist activity |
